Test results from doi:10.1101/2022.02.23.481653 (bioRxiv, 2022).

Biological target: the molecule itself
Assay: native gel or EMSA

B1: SEPT2-msfGFP (wild type) (natural protein)
chain: MSKQQPTQFINPETPGYVGFANLPNQVHRKSVKKGFEFTLMVVGESGLGKSTLINSLFLTDLYPERVIPGAAEKIERTVQIEASTVEIEERGVKLRLTVVDTPGYGDAINCRDCFKTIISYIDEQFERYLHDESGLNRRHIIDNRVHCCFYFISPFGHGLKPLDVAFMKAIHNKVNIVPVIAKADTLTLKERERLKKRILDEIEEHNIKIYHLPDAESDEDEDFKEQTRLLKASIPFSVVGSNQLIEAKGKKVRGRLYPWGVVEVENPEHNDFLKLRTMLITHMQDLQEVTQDLHYENFRSERLKRGGRKVENEDMNKDQILLEKEAELRRMQEMIARMQAQMQMQMQGGDGDGGALGHHV
  stoichiometry N: 2

B2: SEPT2NCmut-msfGFP (SEPT2 F20D, V27D) (natural protein)
chain: MSKQQPTQFINPETPGYVGDANLPNQDHRKSVKKGFEFTLMVVGESGLGKSTLINSLFLTDLYPERVIPGAAEKIERTVQIEASTVEIEERGVKLRLTVVDTPGYGDAINCRDCFKTIISYIDEQFERYLHDESGLNRRHIIDNRVHCCFYFISPFGHGLKPLDVAFMKAIHNKVNIVPVIAKADTLTLKERERLKKRILDEIEEHNIKIYHLPDAESDEDEDFKEQTRLLKASIPFSVVGSNQLIEAKGKKVRGRLYPWGVVEVENPEHNDFLKLRTMLITHMQDLQEVTQDLHYENFRSERLKRGGRKVENEDMNKDQILLEKEAELRRMQEMIARMQAQMQMQMQGGDGDGGALGHHV
  stoichiometry N: 2
